Laboratory results published in paper PMC5881488 (The Journal of Cell Biology, 2018).
Positions count from the first letter of the chain named. Numbers in names are those of the source.

T1: GST-Ana2, full length (Drosophila, UniProt Q9XZ31 1-420)
T1 sequence (looked up): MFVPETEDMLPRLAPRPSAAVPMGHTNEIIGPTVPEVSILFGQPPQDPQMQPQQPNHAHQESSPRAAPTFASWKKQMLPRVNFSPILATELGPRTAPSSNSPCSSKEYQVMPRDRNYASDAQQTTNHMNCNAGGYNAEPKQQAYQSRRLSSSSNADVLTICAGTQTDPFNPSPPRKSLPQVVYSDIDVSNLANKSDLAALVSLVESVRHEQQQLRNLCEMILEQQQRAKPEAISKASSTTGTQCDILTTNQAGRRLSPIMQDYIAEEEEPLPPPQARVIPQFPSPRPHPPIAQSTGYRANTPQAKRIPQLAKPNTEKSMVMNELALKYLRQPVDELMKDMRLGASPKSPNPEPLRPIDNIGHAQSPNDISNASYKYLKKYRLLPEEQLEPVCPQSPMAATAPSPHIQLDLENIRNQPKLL

B1: V5-Ana2 (anastral spindle 2), full length, wild type (natural protein)
chain: T1 sequence (looked up)
B2: MBP-Ana2 NT (aa 1–317), wild type (domain or fragment, Drosophila, UniProt Q9XZ31 1-317, looked up)
chain: MFVPETEDMLPRLAPRPSAAVPMGHTNEIIGPTVPEVSILFGQPPQDPQMQPQQPNHAHQESSPRAAPTFASWKKQMLPRVNFSPILATELGPRTAPSSNSPCSSKEYQVMPRDRNYASDAQQTTNHMNCNAGGYNAEPKQQAYQSRRLSSSSNADVLTICAGTQTDPFNPSPPRKSLPQVVYSDIDVSNLANKSDLAALVSLVESVRHEQQQLRNLCEMILEQQQRAKPEAISKASSTTGTQCDILTTNQAGRRLSPIMQDYIAEEEEPLPPPQARVIPQFPSPRPHPPIAQSTGYRANTPQAKRIPQLAKPNTEK
B3: MBP-Ana2 NT-2PM (aa 1–317, T33E/S38D) (domain or fragment, Drosophila, UniProt Q9XZ31 1-317, looked up)
chain: B2 chain with T33E, S38D
B4: His6-Ana2 CT (aa 318–420), wild type (domain or fragment, Drosophila, UniProt Q9XZ31 318-420, looked up)
chain: SMVMNELALKYLRQPVDELMKDMRLGASPKSPNPEPLRPIDNIGHAQSPNDISNASYKYLKKYRLLPEEQLEPVCPQSPMAATAPSPHIQLDLENIRNQPKLL
B5: Plk4 1–317-FLAG-His6 (domain or fragment, Drosophila, UniProt O97143 1-317, looked up)
chain: MLSNRAFGETIEDYEVQHLLGKGGFATVYKARCLHTHQDVAIKMIDKKLIQGTGLTNRVRQEVEIHSRLKHPSVLQLYTFFQDANYVYLVLELAHNGELHRYMNHIARPFTETEAASILKQVVAGLLYLHSHNIMHRDISLSNLLLSREMHVKIADFGLATQLKRPDERHMTMCGTPNYISPEVVSRTSHGLPADVWSVGCMLYTLLVGRPPFETDAVQSTLNKVVMSEYIMPAHLSYEAQDLINKLLKKLPHERITLEAVLCHPFMLKCSNGGHSAPGALNVFSQSMESGDSGIITFASSDSRNSQQIRSVENSGP

How the values were obtained:
[1] = molecular target: MBP-Ana2 NT-2PM (aa 1–317, T33E/S38D) (Drosophila) (UniProt Q9XZ31); assay: pull-down
[2] = molecular target: Plk4-GFP lacking the putative CC and PB3 (Drosophila); assay: co-IP
[3] = molecular target: Plk4-GFP lacking PB3 (Drosophila); assay: co-IP
pull-down = molecular target: the molecule itself; assay: pull-down
[4] = molecular target: B3; assay: pull-down
GST-Ana2, full length = molecular target: T1, GST-Ana2, full length; assay: pull-down

Q: “His6-Ana2 CT-3PM (aa 318–420, S318/S370/S373 phosphomimetic) (from UniProt Q9XZ31 318-420) (domain or fragment)” was tested. Which fold of His6-Ana2 CT pulled down relative to WT NT with WT CT [1] did it give?
A: 3.5 fold

Q: Which further fold decrease of co-precipitated Ana2 relative to deletion of PB3 alone [2] does the source give for B1 here?
A: 2 fold

Q: And the fold decrease of co-precipitated Ana2 on deletion of PB3 [3]?
A: 2 fold

Q: Does B2 bind (pull-down)?
A: binds

Q: Does B3 bind (pull-down)?
A: binds

Q: Does B4 bind [4]?
A: binds

Q: Does B5 bind (GST-Ana2, full length)?
A: binds
